From paper doi:10.1101/2021.03.19.436211 (bioRxiv, 2021)

How the values were obtained:
SEC-MALS = target: the molecule itself; assay: SEC-MALS
SEC = target: the molecule itself; assay: SEC
crystal structure = target: the molecule itself; assay: crystal structure

B1: mouse lipin 1 M-Lip^xtal domain (as used for SEC-MALS) (domain or fragment, UniProt Q91ZP3-2 458-548, looked up)
chain: SLRDLPSIAISLCGGLSDHREITKDAFLEQAVSYQQFADNPAIIDDPNLVVKVGNKYYNWTTAAPLLLAMQAFQKPLPKATVESIMRDKMP
SEC-MALS
  stoichiometry N: 2

B2: full-length mouse lipin 1α (purified from Sf9 cells) (enzyme, UniProt Q91ZP3-2 1-891, looked up)
chain: MNYVGQLAGQVFVTVKELYKGLNPATLSGCIDIIVIRQPNGSLQCSPFHVRFGKMGVLRSREKVVDIEINGESVDLHMKLGDNGEAFFVQETDNDQEIIPMYLATSPILSEGAARMESQLKRNSVDRIRCLDPTTAAQGLPPSDTPSTGSLGKKRRKRRRKAQLDNLKRDDNVNSSEDEDMFPIEMSSDEDTAPMDGSRTLPNDVPPFQDDIPKENFPSISTHPQSASYPSSDREWSPSPSPSGSRPSTPKSDSELVSKSADRLTPKNNLEMLWLWGELPQAAKSSSPHKMKESSPLGSRKTPDKMNFQAIHSESSDTFSDQSPTMARGLLIHQSKAQTEMQFVNEEDLESLGAAAPPSPVAEELKAPYPNTAQSSSKTDSPSRKKDKRSRHLGADGVYLDDLTDMDPEVAALYFPKNGDPGGLPKQASDNGARSANQSPQSVGGSGIDSGVESTSDSLRDLPSIAISLCGGLSDHREITKDAFLEQAVSYQQFADNPAIIDDPNLVVKVGNKYYNWTTAAPLLLAMQAFQKPLPKATVESIMRDKMPKKGGRWWFSWRGRNATIKEESKPEQCLTGKGHNTGEQPAQLGLATRIKHESSSSDEEHAAAKPSGSSHLSLLSNVSYKKTLRLTSEQLKSLKLKNGPNDVVFSVTTQYQGTCRCEGTIYLWNWDDKVIISDIDGTITRSDTLGHILPTLGKDWTHQGIAKLYHKVSQNGYKFLYCSARAIGMADMTRGYLHWVNERGTVLPQGPLLLSPSSLFSALHREVIEKKPEKFKVQCLTDIKNLFFPNTEPFYAAFGNRPADVYSYKQVGVSLNRIFTVNPKGELVQEHAKTNISSYVRLCEVVDHVFPLLKRSHSCDFPCSDTFSNFTFWREPLPPFENQDMHSASA
SEC
  binding result: binds

B3: mouse lipin 2 M-Lip^xtal domain (domain or fragment, UniProt Q99PI5 459-549, looked up)
chain: SAMDLPDVTLSLCGGLSENGEISKEKFMEHIITYHEFAENPGLIDNPNLVIRIYNRYYNWALAAPMILSLQVFQKSLPKATVESWVKDKMP
Crystal structure
  binding result: binds
